Bridge positions count the residues as written; N and C are the ends. Ends that are not written are not given here.
Key:
[1] = biological target: cJun bZIP (Homo sapiens, UniProt P05412, S292Y); test: CD spectra and thermal denaturation of peptide/cJun heterodimers; conditions: peptide (5 μM)/c-Jun (5 μM) heterodimer; Table 6
Protocol: Circular Dichroism (CD): An Applied Photophysics Chirascan was used for CD measurements, with a 200 μL sample in a 1 mm path length CD cell. Protein/DNA samples were suspended in 150 mM potassium phosphate, 150 mM potassium fluoride and 5 mM TCEP at pH 7.4 and were equilibrated for 30 minutes before measurement. […] These scans were averaged and converted to molar residue ellipticities (MRE). Thermal denaturation experiments were performed by measuring the ellipticity at 222 nm over a 1 to 90° C. gradient at 1° C. increments. Post-melt scans at 20° C. confirmed the transitions were reversible as they overlaid within 10% of the pre-melt scan.
Circular Dichroism (CD): An Applied Photophysics Chirascan was used for CD measurements, with a 200 μL sample in a 1 mm path length CD cell. Protein/DNA samples were suspended in 150 mM potassium phosphate, 150 mM potassium fluoride and 5 mM TCEP at pH 7.4 and were equilibrated for 30minutes before measurement. […] Thermal denaturation experiments were performed by measuring the ellipticity at 222 nm over a 1 to 90° C. gradient at 1° C. increments. Post-melt scans at 20° C. confirmed the transitions were reversible as they overlaid within 10% of the pre-melt scan.
Peptide helicity was determined by quantifying the CD signal at 222 nm of peptide only samples. Thermal denaturation experiments were then used to determine the Tm of peptide-c-Jun heterodimers, which was used as an approximate measure of target engagement. […] The same 60 amino acid c-Jun bZIP construct was used for all experiments, regardless of antagonist peptide length.

[2] = biological target: cJun (Homo sapiens, UniProt P05412, S292Y); test: Isothermal titration calorimetry, Example 2 (PEAQ-ITC); format: binding; design: The same 60 amino acid c-Jun bZIP construct was used for all experiments; His-SUMO (N, cleaved yes); made in house; host or cells: E. coli; conditions: ITC
Protocol: 2 μL injections of antagonist peptide at 25-200 μM were injected into the cell containing cJun at 2.5-20 μM. Software was used to record and analyse the heat change upon addition. Control experiments involved the injection of the antagonist peptide sample into the cell containing ITC buffer alone to determine the heat of dilution which was subtracted. The resulting binding data were fit to a one site binding model to extract the enthalpy change of binding (ΔH) and the equilibrium binding constant (KD), from which the free energy change of binding (ΔG) and the entropy change of binding (ΔS) was calculated (Wiseman et al., 1989). Thermodynamic parameters are presented as an average of two independent experiments with errors given as one standard deviation.

[3] = biological target: T1, cJun bZIP (human, UniProt P05412 252-308, limits assumed); test: cell-based or functional assay
T1 chain: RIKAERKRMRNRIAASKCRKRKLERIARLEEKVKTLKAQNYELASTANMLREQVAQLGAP

[4] = biological target: T1, cJun bZIP; test: cell-based or functional assay
[5] = biological target: T1, cJun bZIP; test: CD thermal denaturation, peptide 5 µM and c-Jun 5 µM
[6] = biological target: T1, cJun bZIP; test: ITC (PEAQ-ITC), peptide injected into cJun, one site model

In the case of “Ac-EAEELVVEEDVLEEEIEQLEERNYALRKEIEDLQKQLEKL-NH2 [Peptide 4]”, the “Tm (° C.)” value [1] is reported as 64.1 ± 1.5 °C, the “ΔG” value [2] is reported as -9.68 ± 0.115 kcal/mol and the “ΔH” value [2] is reported as -45.399 ± 1.93 kcal/mol. For the same molecule, the “−TΔS” value [2] was 35.73 ± 1.94 kcal/mol and the “Stoichiometry, n” value ([2]; c-Jun-peptide interaction) was 0.91 ± 0.04.

In the case of Ac-EAEELVVEEDVLEEEIEQLEERNYALRKEIEDL-NH2 (Synthetic, NΔ20 CΔ10) [HingeW variant peptide 25], the “fold reduction in antagonism compared to 4” value [3] is reported as 26.7 fold, the “fold reduction in antagonism compared to 11” value [3] is reported as 14.8 fold and the “IC50 CD” value [4] is reported as 1210 µM. For the same molecule, the “Tm (° C.) of peptide-c-Jun heterodimer” value [5] was 44.8 ° C.

B1: HingeW variant peptide 10 (peptide)
peptide: Ac-LVVEEDVLEEEIEQLEERNYALRKEIEDLQKQLEDL-NH2
modifications: lactam (positions not given here); also: one i to i+4 K-to-D lactam, places not given here (K24/D28 or K31/D35)
notes: Synthetic, NΔ24 CΔ3; also called cyclised form of 9/10
For B1, the “fold increase in antagonism relative to 5” value [3] was 1.9 fold, the “IC50 CD” value [4] was 69 µM and the “Tm (° C.) of peptide-c-Jun heterodimer” value [5] was 68.3 ° C.

B2: HingeW variant peptide 27 (peptide)
peptide: Ac-EAEELVVEEDVLEEEIEQLEEKNKALKDEIEDLY-NH2
modifications: lactam 24-28 (inferred)
notes: Synthetic, NΔ20 CΔ10; also called cyclised form of 26/27
For B2, the “fold reduction in antagonism relative to 1” value [3] was 8.8 fold, the “IC50 CD” value [4] was 118 µM and the “Tm (° C.) of peptide-c-Jun heterodimer” value [5] was 52.5 ° C.

B3: HingeW variant peptide 29 (peptide)
peptide: Ac-EAEELVVEEDVLEEEIEQLEERNYALRKEIEDLQ-NH2
modifications: lactam 28-32 (inferred)
notes: Synthetic, NΔ20 CΔ9; also called cyclised form of 28/29
For B3, the “fold reduction in antagonism relative to 1” value [3] was 10.4 fold, the “IC50 CD” value [4] was 140 µM and the “Tm (° C.) of peptide-c-Jun heterodimer” value [5] was 57.2 ° C.

B4: HingeW variant peptide 8 (peptide)
peptide: Ac-LVVEEDVLEEEIEQLEEKNKALKDEIEDLQKQLEKLY-NH2
modifications: lactam 20-24 (inferred); also: table prints a different, shorter sequence for 7/8
notes: See peptide 7; also called cyclised form of 7/8
B4 was tested, and the “fold increase in antagonism relative to 5” value [3] was 1.8 fold, the “IC50 CD” value [4] was 73.5 µM and the “Tm (° C.) of peptide-c-Jun heterodimer” value [5] was 67.2 ° C.

With Ac-LVVEEDVLEEEIEQLEERNYALRKEIEDLQKQLEKL-NH2 (Synthetic, NΔ24 CΔ3) [Peptide 5] the “fold better antagonism than 6” value [3] was 1.7 fold, the “fold decrease in antagonism, 3 to 5” value [3] was 2.3 fold and the “fold lower antagonism than 1” value [3] was 5.8 fold. The “fold reduction in antagonism, 4 to 5” value [3] was 1.7 fold, the “IC50 CD” value [4] was 78.2 µM and the “Tm (° C.) of peptide-c-Jun heterodimer” value [5] was 62.8 ° C.

For Ac-EAEELVVEEDVLEEEIEQLEERNYALRKEIEDLQKQLEKL-NH2 (Synthetic, NΔ20 CΔ3) [HingeW variant peptide 4], the “IC50 CD” value [4] was 45.4 µM, the “Tm (° C.) of peptide-c-Jun heterodimer” value [5] was 64.1 ° C and the “-TΔS” value [6] was 35.7 kcal/mol. For the same molecule, the Kd [6] was 0.0911 µM, the “Stoichiometry, n” value [6] was 0.91 and the ΔG [6] was -9.68 kcal/mol. For the same molecule, the ΔH [6] was -45.4 kcal/mol.

B5: HingeW variant peptide 28 (peptide)
peptide: Ac-EAEELVVEEDVLEEEIEQLEERNYALRKEIEDLQ-NH2
notes: Synthetic, NΔ20 CΔ9; also called linear form of 28/29
For B5, the “IC50 CD” value [4] was 725 µM and the “Tm (° C.) of peptide-c-Jun heterodimer” value [5] was 53.8 ° C.

B6: HingeW peptide variant 3 (peptide)
peptide: Ac-LEKEAEELVVEEDVLEEEIEQLEERNYALRKEIEDLQKQLEKL-NH2
notes: Synthetic, NΔ17 CΔ3; also called peptide 3
B6 was tested, and the “fold decrease in antagonism, 2 to 3” value [3] was 2 fold, the “IC50 CD” value [4] was 33.7 µM and the “Tm (° C.) of peptide-c-Jun heterodimer” value [5] was 67.9 ° C.

For Ac-EAEELVVEEDVLEEEIEQLEERNYALRKEIEDLQKQ-NH2 (Synthetic, NΔ20 CΔ7) [HingeW variant peptide 11], the “fold reduction in antagonism, 4 to 11” value [3] was 1.8 fold, the “IC50 CD” value [4] was 82.1 µM and the “Tm (° C.) of peptide-c-Jun heterodimer” value [5] was 57.1 ° C. The “-TΔS” value [6] was -2.14 kcal/mol, the Kd [6] was 1.1 µM and the “Stoichiometry, n” value [6] was 0.95. For the same molecule, the ΔG [6] was -8.15 kcal/mol and the ΔH [6] was -5.99 kcal/mol.

B7: HingeW peptide variant 24 (HW30) (peptide)
peptide: Ac-EAEELVVEEKVLEDEIEQLEERNYALRKEIKDLQDQ-NH2
modifications: lactam 10-14, 31-35
SMILES: CC[C@H](C)[C@H](NC(=O)[C@H](CCC(=O)O)NC(=O)[C@H](CCCCN)NC(=O)[C@H](CCCNC(=N)N)NC(=O)[C@H](CC(C)C)NC(=O)[C@H](C)NC(=O)[C@H](Cc1ccc(O)cc1)NC(=O)[C@H](CC(N)=O)NC(=O)[C@H](CCCNC(=N)N)NC(=O)[C@H](CCC(=O)O)NC(=O)[C@H](CCC(=O)O)NC(=O)[C@H](CC(C)C)NC(=O)[C@H](CCC(N)=O)NC(=O)[C@H](CCC(=O)O)NC(=O)[C@@H](NC(=O)[C@H](CCC(=O)O)NC(=O)[C@@H]1CC(=O)NCCCC[C@H](NC(=O)[C@H](CCC(=O)O)NC(=O)[C@H](CCC(=O)O)NC(=O)[C@@H](NC(=O)[C@@H](NC(=O)[C@H](CC(C)C)NC(=O)[C@H](CCC(=O)O)NC(=O)[C@H](CCC(=O)O)NC(=O)[C@H](C)NC(=O)[C@H](CCC(=O)O)NC(C)=O)C(C)C)C(C)C)C(=O)N[C@@H](C(C)C)C(=O)N[C@@H](CC(C)C)C(=O)N[C@@H](CCC(=O)O)C(=O)N1)[C@@H](C)CC)C(=O)N[C@H]1CCCCNC(=O)C[C@@H](C(=O)N[C@@H](CCC(N)=O)C(N)=O)NC(=O)[C@H](CCC(N)=O)NC(=O)[C@H](CC(C)C)NC(=O)[C@H](CC(=O)O)NC1=O
notes: Synthetic, NΔ20 CΔ7; also called double lactamised peptide
For B7, the “IC50 CD” value [4] was 44.9 µM, the “Tm (° C.) of peptide-c-Jun heterodimer” value [5] was 63.2 ° C and the “-TΔS” value [6] was 19.6 kcal/mol. For the same molecule, the Kd [6] was 0.00969 µM, the “Stoichiometry, n” value [6] was 1.05 and the ΔG [6] was -10.9 kcal/mol. It also gave a ΔH [6] of -30.5 kcal/mol.

B8: Peptide 6 (peptide)
peptide: EDVLEEEIEQLEERNYALRKEIEDLQKQLEKLGAP-NH2
notes: NΔ28; also called LZ-only portion of the HingeW molecule
In the case of B8, the “fold decrease in antagonism, 5 to 6” value [3] is reported as 1.7 fold, the “fold decrease in cJun/TRE DNA antagonism, 1 to 6” value [3] is reported as 9.7 fold and the “IC50 CD” value [4] is reported as 130 µM. For the same molecule, the “Tm (° C.) of peptide-c-Jun heterodimer” value [5] was 55.1 ° C.

B9: HingeW peptide variant 2 (peptide)
peptide: Ac-LARENEELEKEAEELVVEEDVLEEEIEQLEERNYALRKEIEDLQKQLEKL-NH2
notes: Synthetic, NΔ10 CΔ3; also called peptide 2
For B9, the “fold decrease in antagonism, 1 to 2” value [3] was 1.2 fold, the “fold more effective antagonism than 10” value [3] was 4 fold and the “IC50 CD” value [4] was 16.6 µM. The “Tm (° C.) of peptide-c-Jun heterodimer” value [5] was 68.5 ° C.

Source: patent publication US20250188151A1, “C-JUN ANTAGONIST PEPTIDES” (The University of Bath, priority 2022, published 2025)
